± gives the standard deviation of the averaged measurements.
System: ATP
Test: switch fluorescence ratio, 500 uM ATP over buffer (Cy3 cluster intensity, sum of 5 cycles each) (fold (ratio)); higher = stronger signal-on switching upon ATP binding; sequences stand for … in TCGTCGGCAGCGTCAGATGTGTATAAGAGACAGTTTTTTTTTTTTTTTTTTTTTTTTT…TC
Conditions: aptamer strand: ATP DNA aptamer (quencher-CACCTGGGGGAGTATTGCGGAGGAAGG + anchor), 100 nM annealed; ATP concentration: 500 uM
Method in brief: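 Switching-strand clusters labelled with Cy3 on a modified Illumina MiSeq flow-cell were annealed to 100 nM quencher-labelled ATP aptamer, imaged in selection buffer, and re-imaged after 15 min with 500 uM ATP at 22 °C. This was done over five cycles with NaOH stripping and re-annealing in between. The fluorescence ratio is summed target-cycle over summed buffer-cycle Cy3 intensity per cluster, averaged per switch-domain sequence, excluding clusters outside 100-1000 RFU.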
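Further: ATP exposure 15 min at 22 °C before imaging.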

For AGAGTGGAGG, the switch fluorescence ratio was 1 ± 0.041.
For AGAGTGGGGC, the switch fluorescence ratio was 0.9817 ± 0.0089.
With AGAGTGGTA the switch fluorescence ratio was 0.9491 ± 0.0052.
For AGAGTTATGT, the switch fluorescence ratio was 1.019 ± 0.0068.
With AGAGTTGTTT the switch fluorescence ratio was 0.997 ± 0.015.
Sequence AGAGTTTTGG has a switch fluorescence ratio of 0.979 ± 0.025.
With AGATAAACG the switch fluorescence ratio was 0.984 ± 0.056.
With AGATAAAGGG the switch fluorescence ratio was 1.03 ± 0.017.
AGATAACTTT showed a switch fluorescence ratio of 1.02 ± 0.013.
Sequence AGATACGGTG has a switch fluorescence ratio of 0.983 ± 0.044.
AGATAGAGTG gave a switch fluorescence ratio of 0.996 ± 0.02.
Work on AGATAGGGGA yielded a switch fluorescence ratio of 1.01 ± 0.025.
With AGATAGGGGT the switch fluorescence ratio was 1.021 ± 0.008.
Sequence AGATAGGTGT has a switch fluorescence ratio of 1.079 ± 0.003.
AGATATGGCT was tested, and the switch fluorescence ratio was 0.979 ± 0.038.
With AGATATTACG the switch fluorescence ratio was 1.03 ± 0.037.
With AGATATTATT the switch fluorescence ratio was 0.9771 ± 0.0015.
Work on AGATCCCGCG yielded a switch fluorescence ratio of 1.03 ± 0.032.
Sequence AGATCTGGAG has a switch fluorescence ratio of 0.9982 ± 0.0069.
AGATGAGATA showed a switch fluorescence ratio of 1.005 ± 0.0037.
AGATGAGGCG gave a switch fluorescence ratio of 1 ± 0.068.
AGATGCAGTA was tested, and the switch fluorescence ratio was 1.01 ± 0.028.
Sequence AGATGGGAAT has a switch fluorescence ratio of 1.04 ± 0.0028.
Work on AGATGGGTGG yielded a switch fluorescence ratio of 1.01 ± 0.025.
AGATGGGTGT was tested, and the switch fluorescence ratio was 1.04 ± 0.041.
AGATGGGTTT was tested, and the switch fluorescence ratio was 1.01 ± 0.044.
AGATGTGGGA showed a switch fluorescence ratio of 1 ± 0.013.
Work on AGATGTGTGG yielded a switch fluorescence ratio of 0.989 ± 0.053.
For AGATTAGTAT, the switch fluorescence ratio was 1.02 ± 0.056.
In the case of AGATTATGTT, the switch fluorescence ratio is reported as 1.01 ± 0.029.
Sequence AGATTCACTT has a switch fluorescence ratio of 1.01 ± 0.013.
With AGATTCAGAA the switch fluorescence ratio was 0.947 ± 0.037.
Sequence AGATTCCGCT has a switch fluorescence ratio of 1.108 ± 0.011.
AGATTCGGTC showed a switch fluorescence ratio of 1 ± 0.018.
Sequence AGATTGGAGG has a switch fluorescence ratio of 0.957 ± 0.028.
In the case of AGATTTAGGG, the switch fluorescence ratio is reported as 0.986 ± 0.017.
For AGATTTATCG, the switch fluorescence ratio was 0.9781 ± 0.0027.
Work on AGATTTCATA yielded a switch fluorescence ratio of 0.985 ± 0.02.
AGATTTGGGC was tested, and the switch fluorescence ratio was 1.02 ± 0.031.
Work on AGATTTTTTG yielded a switch fluorescence ratio of 0.9926 ± 0.0073.
AGCAACATTG was tested, and the switch fluorescence ratio was 1.01 ± 0.06.
In the case of AGCAAGGGGA, the switch fluorescence ratio is reported as 1.07 ± 0.058.
For AGCAATTGCT, the switch fluorescence ratio was 1.05 ± 0.023.
For AGCACGCTGG, the switch fluorescence ratio was 1.029 ± 0.0042.
AGCACGTTCT gave a switch fluorescence ratio of 0.993 ± 0.1.
Work on AGCACTTTTC yielded a switch fluorescence ratio of 1.0192 ± 0.00082.
AGCAGAAATC showed a switch fluorescence ratio of 1.07 ± 0.039.
AGCAGACGGC gave a switch fluorescence ratio of 1.03 ± 0.024.
Work on AGCAGGGGTG yielded a switch fluorescence ratio of 1.09 ± 0.013.
For AGCAGTGACT, the switch fluorescence ratio was 1.13 ± 0.036.

Source: the supplement of paper PMC10126150
